# Read-outs that look alike come from different tables or passages of the source. Square brackets hold non-standard residues; d marks the D form. Ends that are not written are not given here. β3hR = N=C(N)NCCC[C@H](N)CC(=O)O
# B1: QT26 (peptide)
# peptide: QTAVPKISKQGLGGDFEEIPSDEIIE
# notes: Avathrin without its four N-terminal residues
# B2: avathrin (Amblyomma variegatum thrombin inhibitor) (peptide)
# peptide: SGGHQTAVPKISKQGLGGDFEEIPSDEIIE
# notes: Synthetic 30-residue peptide; one repeat of precursor protein BAD29729
# B3: UV011 (peptide)
# peptide: MYSTAPPGDFEEIPDDAIEE
# notes: also called C-terminal cleavage product of ultravariegin
# B4: IS20 (peptide)
# peptide: ISKQGLGGDFEEIPSDEIIE
# notes: Avathrin residues 11-30; also called C-terminal cleavage product of avathrin
# B5: UV007 (peptide)
# peptide: CDEAVRAIPKMYSTAPPGDFEEIPDDAIEE
# notes: Ultravariegin with Cys at the N-terminus
# Columns and labels:
# [1] = target: T1, human α-thrombin (recombinant) (human, UniProt P00734 328-363; P00734 364-622); test: cell-based or functional assay
# [2] = target: T1, human α-thrombin (recombinant); test: thrombin amidolytic assay with S2238, tight-binding fit
# Procedure: A and C. […] B and D. Residual thrombin amidolytic activities in presence of UV003 and UV004 were measured at different concentrations of S2238 and their Kᵢ were determined.
# (§1) Thrombin amidolytic activity assays for all peptides were performed in 96-wells microtiter plates in 50 mM Tris buffer (pH 7.4) containing 100 mM NaCl and 1 mg/ml bovine serum albumin. […] The rates of formation of p-nitroaniline were followed by measuring the absorbance at 405 nm for 10 min with a Tecan InfinitePro M200 microplate reader from Tecan (Mannedorf, Switzerland). Dose-response curves were fitted using the GraphPad Prizm software (San Diego, Calif., USA) to calculate IC50 values and Hill coefficients. To measure the inhibitory constants, different concentrations of S2238 were used and the residual velocities were determined using the Morrison's tight binding equation. Inhibition of thrombin fibrinogenolytic activity of peptides were tested by measuring absorbance at 650 nm using a Sunrise microplate reader from Tecan (Mannedorf, Switzerland) as described previously [Koh C Y, et al., J Biol Chem 282: 29101-13 (2007)].
# [3] = target: T1, human α-thrombin (recombinant); test: cell-based or functional assay; remark: listed apart in the source
# [4] = target: T1, human α-thrombin (recombinant); test: cell-based or functional assay; remark: listed apart in the source
# [5] = target: T1, human α-thrombin (recombinant); test: thrombin amidolytic assay with S2238, Morrison tight-binding fit, competitive
# Text: Data were fitted to the Morrison tight binding equation using GraphPad Prizm software. Each data point is the mean±S.D. of at least three experiments.
# (§3) Each data point is the mean±S.D. of at least three independent experiments. […] Each data point is the mean±S.D. of at least three independent experiments. […] Each data point is the mean±S.D. of at least three experiments.
# [6] = target: bovine trypsin (bovine, UniProt P00760 24-246); test: cell-based or functional assay
# [7] = target: fIXa; test: cell-based or functional assay
# [8] = target: fXIa; test: cell-based or functional assay
# [9] = target: fXa; test: cell-based or functional assay
# [10] = target: bovine chymotrypsin (bovine, UniProt P00766 1-245); test: cell-based or functional assay
# [11] = target: tPA; test: cell-based or functional assay
# [12] = target: fVIIa; test: cell-based or functional assay
# [13] = target: plasmin; test: cell-based or functional assay
# [14] = target: APC; test: cell-based or functional assay
# [15] = target: kallikrein; test: cell-based or functional assay
# [16] = target: urokinase; test: cell-based or functional assay
# [17] = target: fXIIa; test: cell-based or functional assay
# [18] = target: T1, human α-thrombin (recombinant); test: cell-based or functional assay; remark: listed apart in the source
# [19] = target: T1, human α-thrombin (recombinant); test: thrombin amidolytic assay with S2238; column headed Affinity (nM)
# Procedure: Each data point is the mean±S.D. of at least three experiments. […] Data were fitted to the Morrison tight binding equation using GraphPad Prizm software. Each data point is the mean±S.D. of at least three experiments.
# (§4) Thrombin amidolytic activity assays for all peptides were performed in 96-wells microtiter plates in 50 mM Tris buffer (pH 7.4) containing 100 mM NaCl and 1 mg/ml bovine serum albumin. […] Dose-response curves were fitted using the GraphPad Prizm software (San Diego, Calif., USA) to calculate IC50 values and Hill coefficients. To measure the inhibitory constants, different concentrations of S2238 were used and the residual velocities were determined using the Morrison's tight binding equation.
# [20] = target: T1, human α-thrombin (recombinant); test: thrombin amidolytic assay with S2238, tight-binding fit; remark: listed apart in the source
# Procedure: (§2) Each data point is the mean±S.D. of at least three independent experiments.
# as §1, with “(2007)]. […] After different incubation times, reactions were quenched with 1% TFA (pH 1.8) and loaded onto a Jupiter Proteo column (4 μm, 90 Å, 100×1.0 mm) attached to a Dionex nano-HPLC system from Thermo Fisher Scientific (Waltham, Mass., USA) and eluted using an acetonitrile gradient with 0.05% TFA and 99.95% MilliQ water as eluent A and 0.05% TFA, 19.95% MilliQ water and 80% ACN as eluent B. Masses of all peaks were measured to identify cleavage products, which were subsequently quantified by integrating the peaks and calculating the area under the curves. To measure the effect of different pre-incubation times on the thrombin inhibitory activity, amidolytic assays were performed for various incubation times (up to 36 h).” for “(2007)].”
# [21] = target: T1, human α-thrombin (recombinant); test: thrombin amidolytic assay with S2238, double reciprocal (Lineweaver-Burke) plot
# Procedure: as §2
# as §1, with “To measure the inhibitory constants, different concentrations of S2238 were used and the residual velocities were determined using the Morrison's tight binding equation.” left out, “(2007)]. […] After different incubation times, reactions were quenched with 1% TFA (pH 1.8) and loaded onto a Jupiter Proteo column (4 μm, 90 Å, 100×1.0 mm) attached to a Dionex nano-HPLC system from Thermo Fisher Scientific (Waltham, Mass., USA) and eluted using an acetonitrile gradient with 0.05% TFA and 99.95% MilliQ water as eluent A and 0.05% TFA, 19.95% MilliQ water and 80% ACN as eluent B. Masses of all peaks were measured to identify cleavage products, which were subsequently quantified by integrating the peaks and calculating the area under the curves. […]” for “(2007)].”
# [22] = target: T1, human α-thrombin (recombinant); test: comparison of Ki values, thrombin amidolytic assay
# Procedure: as §4
# [23] = target: T1, human α-thrombin (recombinant); test: comparison of Ki values
# Procedure: as §4
# [24] = target: T1, human α-thrombin (recombinant); test: thrombin amidolytic assay with S2238, Morrison tight-binding fit, non-competitive
# Procedure: as §3, §4
# Chain of fVIIa (P08709 whole entry): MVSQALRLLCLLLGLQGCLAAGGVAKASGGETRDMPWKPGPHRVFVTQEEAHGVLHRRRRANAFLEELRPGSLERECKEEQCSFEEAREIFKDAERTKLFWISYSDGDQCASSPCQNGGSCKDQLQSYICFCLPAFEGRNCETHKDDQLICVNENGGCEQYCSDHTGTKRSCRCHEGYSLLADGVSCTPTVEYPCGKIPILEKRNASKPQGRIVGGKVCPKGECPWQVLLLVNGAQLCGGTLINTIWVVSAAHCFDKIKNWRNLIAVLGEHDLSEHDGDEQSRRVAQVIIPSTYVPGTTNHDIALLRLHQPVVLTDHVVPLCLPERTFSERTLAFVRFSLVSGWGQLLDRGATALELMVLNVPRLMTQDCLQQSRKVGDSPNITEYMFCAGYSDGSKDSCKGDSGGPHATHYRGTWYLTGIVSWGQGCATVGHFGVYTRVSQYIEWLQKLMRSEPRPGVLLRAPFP
# Chain of fXa (P00742 whole entry): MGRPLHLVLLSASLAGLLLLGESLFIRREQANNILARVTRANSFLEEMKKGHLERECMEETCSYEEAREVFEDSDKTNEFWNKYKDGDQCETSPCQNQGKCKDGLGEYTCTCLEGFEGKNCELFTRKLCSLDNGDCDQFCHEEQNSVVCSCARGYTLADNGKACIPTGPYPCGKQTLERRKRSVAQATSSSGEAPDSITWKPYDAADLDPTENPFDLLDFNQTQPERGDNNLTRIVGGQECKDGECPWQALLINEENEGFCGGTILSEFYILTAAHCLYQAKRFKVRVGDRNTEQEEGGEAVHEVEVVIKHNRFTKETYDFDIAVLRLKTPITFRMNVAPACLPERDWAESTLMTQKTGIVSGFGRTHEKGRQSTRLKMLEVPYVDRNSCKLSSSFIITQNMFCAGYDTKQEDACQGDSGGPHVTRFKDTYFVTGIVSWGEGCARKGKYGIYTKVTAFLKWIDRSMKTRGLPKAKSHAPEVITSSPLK
# Chain of bovine trypsin (P00760 24-246): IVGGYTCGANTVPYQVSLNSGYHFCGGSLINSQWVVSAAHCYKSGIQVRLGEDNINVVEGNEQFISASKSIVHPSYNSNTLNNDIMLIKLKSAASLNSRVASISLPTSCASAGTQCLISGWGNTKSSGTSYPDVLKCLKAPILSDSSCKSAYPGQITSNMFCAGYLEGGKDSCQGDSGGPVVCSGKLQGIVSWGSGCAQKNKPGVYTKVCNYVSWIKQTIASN
binder,measurement,setting,value
SDEAVRAIPKMYSTAPPGDFEEIPDDAIEECA (Ultravariegin with C-terminal CA) [UV008],"IC50, inhibition of thrombin amidolytic activity",[1],1.82 nM
same,Ki,[2],0.0786 nM
B1,"IC50, inhibition of thrombin amidolytic activity, 10 min pre-incubation",[3],13.5 nM
same,"IC50, inhibition of thrombin amidolytic activity (S2238)",[4],8.94 nM
same,Ki,[5],0.76 nM
SDQGDVAIPKMYSTAPPGDFEEIPDDAIEE [UV003],"IC50, inhibition of thrombin amidolytic activity",[1],0.6 nM
same,Ki,[2],0.00421 nM
B2,"IC50, inhibition of the amidolytic activity of clot-bound thrombin (S2238)",[3],1.74 µM
same,"IC50, inhibition of thrombin amidolytic activity, 10 min pre-incubation",[3],4.86 nM
same,percent of thrombin amidolytic activity inhibited at 24 h of incubation (avathrin in about 30-fold excess),[3],> 45%
same,percent inhibition of amidolytic activity at 100 µM avathrin,[6],< 30%
same,percent inhibition of amidolytic activity at 100 µM avathrin,[7],< 30%
same,percent inhibition of amidolytic activity at 100 µM avathrin,[8],< 30%
same,percent inhibition of amidolytic activity at 100 µM avathrin,[9],< 30%
same,percent inhibition of amidolytic activity at 100 µM avathrin,[10],< 30%
same,percent inhibition of amidolytic activity at 100 µM avathrin,[11],< 30%
same,percent inhibition of amidolytic activity at 100 µM avathrin,[12],< 30%
same,percent inhibition of amidolytic activity at 100 µM avathrin,[13],< 30%
same,percent inhibition of amidolytic activity at 100 µM avathrin,[14],< 30%
same,percent inhibition of amidolytic activity at 100 µM avathrin,[15],< 30%
same,percent inhibition of amidolytic activity at 100 µM avathrin,[16],< 30%
same,percent inhibition of amidolytic activity at 100 µM avathrin,[17],< 30%
same,"IC50, inhibition of thrombin amidolytic activity (S2238)",[4],6.95 nM
same,"IC50, inhibition of thrombin amidolytic activity",[18],6.95 nM
same,Ki,[19],0.545 nM
same,Ki,[5],0.545 nM
"SDGHDTAVPKISKQGLGGDFEEIPSDEIIE [avathrin G2D, Q5D]",fold weaker inhibition against avathrin and QT26,[3],< 2 fold
same,"IC50, inhibition of thrombin amidolytic activity (S2238)",[4],13 nM
same,Ki,[20],0.932 nM
SGGHQTAVPKIAKQGLGGDFEEIPSDEIIE [avathrin S12A],fold change of IC50 against avathrin,[3],20 fold
same,fold drop in potency against avathrin (amidolytic IC50),[3],> 10 fold
same,"IC50, inhibition of thrombin amidolytic activity (S2238)",[4],101 nM
same,Ki,[21],6.08 nM
SGGHQTAVPRISKQGLGGDFEEIPSDEIIE (also called K10R-avathrin) [avathrin K10R],fold gain in activity against avathrin,[3],5 fold
same,"IC50, inhibition of thrombin amidolytic activity (S2238)",[4],1.15 nM
same,Ki,[20],0.172 nM
SGGHQTAVPKIHKQGLGGDFEEIPSDEIIE (also called 512H) [avathrin S12H],fold loss of potency against avathrin (amidolytic IC50),[3],2 fold
same,"IC50, inhibition of thrombin amidolytic activity (S2238)",[4],18.5 nM
same,Ki,[20],1.23 nM
MYSTAPPGDFEEIPDDAIEEGCCC (UV011 with C-terminal GCCC) [UV014],"IC50, inhibition of thrombin amidolytic activity",[1],1.98 nM
same,Ki,[2],2.47 nM
SGGHQTAVP[β3hR]ISKQGLGGDFEEIPSDEIIE [β-avathrin],fold loss of potency against avathrin (amidolytic IC50),[3],> 100 fold
same,"IC50, inhibition of thrombin amidolytic activity (S2238)",[4],332 nM
same,Ki,[21],32 nM
SDEAVRAIPKMYSTAPPGDFEEIPEEYLDDES [UV005],"IC50, inhibition of thrombin amidolytic activity",[1],0.91 nM
same,fold drop in affinity against ultravariegin,[22],~3.6 fold
same,Ki,[2],0.016 nM
B3,fold better Ki than the avathrin C-terminal cleavage product IS20,[23],~4 fold
same,fold better Ki than the variegin C-terminal cleavage product MH22,[23],~10 fold
same,"IC50, inhibition of thrombin amidolytic activity",[1],1.66 nM
same,Ki,[2],1.39 nM
"SGGHQTAVPKISKQGPPGDFEEIPSDEIIE [avathrin L16P, G17P]",fold drop in activity against avathrin (amidolytic IC50),[3],> 25 fold
same,"IC50, inhibition of thrombin amidolytic activity (S2238)",[4],181 nM
SDQGDVAEPKMYSTAPPFDFEAIPEEYLDDES [Variegin YS],"IC50, inhibition of thrombin amidolytic activity",[1],3.16 nM
same,Ki,[2],0.671 nM
SDEAVRAIPKMYSTAPPGDFEEIPDDAIEEGCCC (Ultravariegin with C-terminal GCCC) [UV015],"IC50, inhibition of thrombin amidolytic activity",[1],1 nM
same,Ki,[2],0.00852 nM
B4,"IC50, inhibition of thrombin amidolytic activity, 0 min",[3],12.4 nM
same,"IC50, inhibition of thrombin amidolytic activity, 10 min pre-incubation",[3],22.7 nM
same,"IC50, inhibition of thrombin amidolytic activity (S2238)",[4],12.2 nM
same,Ki,[24],5.76 nM
SDEAVRAEPKMHKTAPPGDFEEIPDDAIEE [UV004],"IC50, inhibition of thrombin amidolytic activity",[1],0.46 nM
same,Ki,[2],0.00455 nM
B5,"IC50, inhibition of thrombin amidolytic activity",[1],0.601 nM
same,Ki,[2],0.00627 nM
SDEAVRAIPKMYSQAPPGDFEEIPDDAIEE (Ultravariegin Thr14Gln) [UV013],"IC50, inhibition of thrombin amidolytic activity",[1],0.341 nM
SDEAVRAIPKMYSTAPPGDFEEIPDDEIEE (Ultravariegin Ala27Glu) [UV012],"IC50, inhibition of thrombin amidolytic activity",[1],0.94 nM

# Source: patent publication US20190002511A1 (NATIONAL UNIVERSITY OF SINGAPORE, published 2019)
